B1: MCM3_HUMAN (protein, UniProt P25205 2-808, looked up)
DNA replication licensing …: AGTVVLDDVELREAQRDYLDFLDDEEDQGIYQSKVRELISDNQYRLIVNVNDLRRKNEKRANRLLNNAFEELVAFQRALKDFVASIDATYAKQYEEFYVGLEGSFGSKHVSPRTLTSCFLSCVVCVEGIVTKCSLVRPKVVRSVHYCPATKKTIERRYSDLTTLVAFPSSSVYPTKDEENNPLETEYGLSVYKDHQTITIQEMPEKAPAGQLPRSVDVILDDDLVDKAKPGDRVQVVGTYRCLPGKKGGYTSGTFRTVLIACNVKQMSKDAQPSFSAEDIAKIKKFSKTRSKDIFDQLAKSLAPSIHGHDYVKKAILCLLLGGVERDLENGSHIRGDINILLIGDPSVAKSQLLRYVLCTAPRAIPTTGRGSSGVGLTAAVTTDQETGERRLEAGAMVLADRGVVCIDEFDKMSDMDRTAIHEVMEQGRVTIAKAGIHARLNARCSVLAAANPVYGRYDQYKTPMENIGLQDSLLSRFDLLFIMLDQMDPEQDREISDHVLRMHRYRAPGEQDGDAMPLGSAVDILATDDPNFSQEDQQDTQIYEKHDNLLHGTKKKKEKMVSAAFMKKYIHVAKIIKPVLTQESATYIAEEYSRLRSQDSMSSDTARTSPVTARTLETLIRLATAHAKARMSKTVDLQDAEEAVELVQYAYFKKVLEKEKKRKKRSEDESETEDEEEKSQEDQEQKRKRRKTRQPDAKDGDSYDPYDFSDTEEEMPQVHTPKTADSQETKESQKVELSESRLKAFKVALLDVFREAHAQSIGMNRLTESINRDSEEPFSSVEIQAALSKMQDDNQVMVSEGIIFLI
B2: TIF1B_HUMAN (protein, UniProt Q13263 2-835, looked up)
Transcription intermediary …: AASAAAASAAAASAASGSPGPGEGSAGGEKRSTAPSAAASASASAAASSPAGGGAEALELLEHCGVCRERLRPEREPRLLPCLHSACSACLGPAAPAAANSSGDGGAAGDGTVVDCPVCKQQCFSKDIVENYFMRDSGSKAATDAQDANQCCTSCEDNAPATSYCVECSEPLCETCVEAHQRVKYTKDHTVRSTGPAKSRDGERTVYCNVHKHEPLVLFCESCDTLTCRDCQLNAHKDHQYQFLEDAVRNQRKLLASLVKRLGDKHATLQKSTKEVRSSIRQVSDVQKRVQVDVKMAILQIMKELNKRGRVLVNDAQKVTEGQQERLERQHWTMTKIQKHQEHILRFASWALESDNNTALLLSKKLIYFQLHRALKMIVDPVEPHGEMKFQWDLNAWTKSAEAFGKIVAERPGTNSTGPAPMAPPRAPGPLSKQGSGSSQPMEVQEGYGFGSGDDPYSSAEPHVSGVKRSRSGEGEVSGLMRKVPRVSLERLDLDLTADSQPPVFKVFPGSTTEDYNLIVIERGAAAAATGQPGTAPAGTPGAPPLAGMAIVKEEETEAAIGAPPTATEGPETKPVLMALAEGPGAEGPRLASPSGSTSSGLEVVAPEGTSAPGGGPGTLDDSATICRVCQKPGDLVMCNQCEFCFHLDCHLPALQDVPGEEWSCSLCHVLPDLKEEDGSLSLDGADSTGVVAKLSPANQRKCERVLLALFCHEPCRPLHQLATDSTFSLDQPGGTLDLTLIRARLQEKLSPPYSSPQEFAQDVGRMFKQFNKLTEDKADVQSIIGLQRFFETRMNEAFGDTKFSAVLVEPPPMSLPGAGLSSQELSGGPGDGP
B3: SC23A_HUMAN (protein, UniProt Q15436 2-765, looked up)
Protein transport protein …: TTYLEFIQQNEERDGVRFSWNVWPSSRLEATRMVVPVAALFTPLKERPDLPPIQYEPVLCSRTTCRAVLNPLCQVDYRAKLWACNFCYQRNQFPPSYAGISELNQPAELLPQFSSIEYVVLRGPQMPLIFLYVVDTCMEDEDLQALKESMQMSLSLLPPTALVGLITFGRMVQVHELGCEGISKSYVFRGTKDLSAKQLQEMLGLSKVPLTQATRGPQVQQPPPSNRFLQPVQKIDMNLTDLLGELQRDPWPVPQGKRPLRSSGVALSIAVGLLECTFPNTGARIMMFIGGPATQGPGMVVGDELKTPIRSWHDIDKDNAKYVKKGTKHFEALANRAATTGHVIDIYACALDQTGLLEMKCCPNLTGGYMVMGDSFNTSLFKQTFQRVFTKDMHGQFKMGFGGTLEIKTSREIKISGAIGPCVSLNSKGPCVSENEIGTGGTCQWKICGLSPTTTLAIYFEVVNQHNAPIPQGGRGAIQFVTQYQHSSGQRRIRVTTIARNWADAQTQIQNIAASFDQEAAAILMARLAIYRAETEEGPDVLRWLDRQLIRLCQKFGEYHKDDPSSFRFSETFSLYPQFMFHLRRSSFLQVFNNSPDESSYYRHHFMRQDLTQSLIMIQPILYAYSFSGPPEPVLLDSSSILADRILLMDTFFQILIYHGETIAQWRKSGYQDMPEYENFRHLLQAPVDDAQEILHSRFPMPRYIDTEHGGSQARFLLSKVNPSQTHNNMYAWGQESGAPILTDDVSLQVFMDHLKKLAVSSAA
B4: RNZ2_HUMAN (protein, UniProt Q9BQ52 17-826, looked up)
Zinc phosphodiesterase ELAC …: SQGRTISQAPARRERPRKDPLRHLRTREKRGPSGCSGGPNTVYLQVVAAGSRDSGAALYVFSEFNRYLFNCGEGVQRLMQEHKLKVARLDNIFLTRMHWSNVGGLSGMILTLKETGLPKCVLSGPPQLEKYLEAIKIFSGPLKGIELAVRPHSAPEYEDETMTVYQIPIHSEQRRGKHQPWQSPERPLSRLSPERSSDSESNENEPHLPHGVSQRRGVRDSSLVVAFICKLHLKRGNFLVLKAKEMGLPVGTAAIAPIIAAVKDGKSITHEGREILAEELCTPPDPGAAFVVVECPDESFIQPICENATFQRYQGKADAPVALVVHMAPASVLVDSRYQQWMERFGPDTQHLVLNENCASVHNLRSHKIQTQLNLIHPDIFPLLTSFRCKKEGPTLSVPMVQGECLLKYQLRPRREWQRDAIITCNPEEFIVEALQLPNFQQSVQEYRRSAQDGPAPAEKRSQYPEIIFLGTGSAIPMKIRNVSATLVNISPDTSLLLDCGEGTFGQLCRHYGDQVDRVLGTLAAVFVSHLHADHHTGLPSILLQRERALASLGKPLHPLLVVAPNQLKAWLQQYHNQCQEVLHHISMIPAKCLQEGAEISSPAVERLISSLLRTCDLEEFQTCLVRHCKHAFGCALVHTSGWKVVYSGDTMPCEALVRMGKDATLLIHEATLEDGLEEEAVEKTHSTTSQAISVGMRMNAEFIMLNHFSQRYAKVPLFSPNFSEKVGVAFDHMKVCFGDFPTMPKLIPPLKALFAGDIEEMEERREKRELRQVRAALLSRELAGGLEDGEPQQKRAHTEEPQAKKVRAQ
B5: ZC3HE_HUMAN (protein, UniProt Q6PJT7 1-736, looked up)
Zinc finger CCCH …: MEIGTEISRKIRSAIKGKLQELGAYVDEELPDYIMVMVANKKSQDQMTEDLSLFLGNNTIRFTVWLHGVLDKLRSVTTEPSSLKSSDTNIFDSNVPSNKSNFSRGDERRHEAAVPPLAIPSARPEKRDSRVSTSSQESKTTNVRQTYDDGAATRLMSTVKPLREPAPSEDVIDIKPEPDDLIDEDLNFVQENPLSQKKPTVTLTYGSSRPSIEIYRPPASRNADSGVHLNRLQFQQQQNSIHAAKQLDMQSSWVYETGRLCEPEVLNSLEETYSPFFRNNSEKMSMEDENFRKRKLPVVSSVVKVKKFNHDGEEEEEDDDYGSRTGSISSSVSVPAKPERRPSLPPSKQANKNLILKAISEAQESVTKTTNYSTVPQKQTLPVAPRTRTSQEELLAEVVQGQSRTPRISPPIKEEETKGDSVEKNQGTQQRQLLSRLQIDPVMAETLQMSQDYYDMESMVHADTRSFILKKPKLSEEVVVAPNQESGMKTADSLRVLSGHLMQTRDLVQPDKPASPKFIVTLDGVPSPPGYMSDQEEDMCFEGMKPVNQTAASNKGLRGLLHPQQLHLLSRQLEDPNGSFSNAEMSELSVAQKPEKLLERCKYWPACKNGDECAYHHPISPCKAFPNCKFAEKCLFVHPNCKYDAKCTKPDCPFTHVSRRIPVLSPKPAVAPPAPPSSSQLCRYFPACKKMECPFYHPKHCRFNTQCTRPDCTFYHPTINVPPRHALKWIRPQTSE
B6: FIP1_HUMAN (protein, UniProt Q6UN15 1-594, looked up)
Pre-mRNA 3'-end-processing …: MSAGEVERLVSELSGGTGGDEEEEWLYGGPWDVHVHSDLAKDLDENEVERPEEENASANPPSGIEDETAENGVPKPKVTETEDDSDSDSDDDEDDVHVTIGDIKTGAPQYGSYGTAPVNLNIKTGGRVYGTTGTKVKGVDLDAPGSINGVPLLEVDLDSFEDKPWRKPGADLSDYFNYGFNEDTWKAYCEKQKRIRMGLEVIPVTSTTNKITAEDCTMEVTPGAEIQDGRFNLFKVQQGRTGNSEKETALPSTKAEFTSPPSLFKTGLPPSRNSTSSQSQTSTASRKANSSVGKWQDRYGRAESPDLRRLPGAIDVIGQTITISRVEGRRRANENSNIQVLSERSATEVDNNFSKPPPFFPPGAPPTHLPPPPFLPPPPTVSTAPPLIPPPGFPPPPGAPPPSLIPTIESGHSSGYDSRSARAFPYGNVAFPHLPGSAPSWPSLVDTSKQWDYYARREKDRDRERDRDRERDRDRDRERERTRERERERDHSPTPSVFNSDEERYRYREYAERGYERHRASREKEERHRERRHREKEETRHKSSRSNSRRRHESEEGDSHRRHKHKKSKRSKEGKEAGSEPAPEQESTEATPAE
B7: SRC8_HUMAN (protein, UniProt Q14247 1-550, looked up)
Src substrate cortactin: MWKASAGHAVSIAQDDAGADDWETDPDFVNDVSEKEQRWGAKTVQGSGHQEHINIHKLRENVFQEHQTLKEKELETGPKASHGYGGKFGVEQDRMDKSAVGHEYQSKLSKHCSQVDSVRGFGGKFGVQMDRVDQSAVGFEYQGKTEKHASQKDYSSGFGGKYGVQADRVDKSAVGFDYQGKTEKHESQRDYSKGFGGKYGIDKDKVDKSAVGFEYQGKTEKHESQKDYVKGFGGKFGVQTDRQDKCALGWDHQEKLQLHESQKDYKTGFGGKFGVQSERQDSAAVGFDYKEKLAKHESQQDYSKGFGGKYGVQKDRMDKNASTFEDVTQVSSAYQKTVPVEAVTSKTSNIRANFENLAKEKEQEDRRKAEAERAQRMAKERQEQEEARRKLEEQARAKTQTPPVSPAPQPTEERLPSSPVYEDAASFKAELSYRGPVSGTEPEPVYSMEAADYREASSQQGLAYATEAVYESAEAPGHYPAEDSTYDEYENDLGITAVALYDYQAAGDDEISFDPDDIITNIEMIDDGWWRGVCKGRYGLFPANYVELRQ
B8: XRN2_HUMAN (protein, UniProt Q9H0D6 1-950, looked up)
5'-3' exoribonuclease 2: MGVPAFFRWLSRKYPSIIVNCVEEKPKECNGVKIPVDASKPNPNDVEFDNLYLDMNGIIHPCTHPEDKPAPKNEDEMMVAIFEYIDRLFSIVRPRRLLYMAIDGVAPRAKMNQQRSRRFRASKEGMEAAVEKQRVREEILAKGGFLPPEEIKERFDSNCITPGTEFMDNLAKCLRYYIADRLNNDPGWKNLTVILSDASAPGEGEHKIMDYIRRQRAQPNHDPNTHHCLCGADADLIMLGLATHEPNFTIIREEFKPNKPKPCGLCNQFGHEVKDCEGLPREKKGKHDELADSLPCAEGEFIFLRLNVLREYLERELTMASLPFTFDVERSIDDWVFMCFFVGNDFLPHLPSLEIRENAIDRLVNIYKNVVHKTGGYLTESGYVNLQRVQMIMLAVGEVEDSIFKKRKDDEDSFRRRQKEKRKRMKRDQPAFTPSGILTPHALGSRNSPGSQVASNPRQAAYEMRMQNNSSPSISPNTSFTSDGSPSPLGGIKRKAEDSDSEPEPEDNVRLWEAGWKQRYYKNKFDVDAADEKFRRKVVQSYVEGLCWVLRYYYQGCASWKWYYPFHYAPFASDFEGIADMPSDFEKGTKPFKPLEQLMGVFPAASGNFLPPSWRKLMSDPDSSIIDFYPEDFAIDLNGKKYAWQGVALLPFVDERRLRAALEEVYPDLTPEETRRNSLGGDVLFVGKHHPLHDFILELYQTGSTEPVEVPPELCHGIQGKFSLDEEAILPDQIVCSPVPMLRDLTQNTVVSINFKDPQFAEDYIFKAVMLPGARKPAAVLKPSDWEKSSNGRQWKPQLGFNRDRRPVHLDQAAFRTLGHVMPRGSGTGIYSNAAPPPVTYQGNLYRPLLRGQAQIPKLMSNMRPQDSWRGPPPLFQQQRFDRGVGAEPLLPWNRMLQTQNAAFQPNQYQMLAGPGGYPPRRDDRGGRQGYPREGRKYPLPPPSGRYNWN

Test system: KDM4A-I71AzF
Assay: CASI: photo-crosslinking with HEK293T cell extracts, StrepTactin enrichment and LC-MS/MS proteomics;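 further: lysates from HEK293T cells pretreated with a KDM4 inhibitor to raise proteome methylation, affinity-purified after ±UV, gel-resolved, trypsin-digested, with exclusive unique peptides per protein averaged per condition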
Type: binding, human
Details: sheet "Final results but with 0.01"

| Molecule | Fold change (+UV/-UV) |
| --- | --- |
| B1 | 1.2 |
| B2 | 0.8 |
| B3 | 0.5 |
| B4 | 0.5 |
| B5 | 4 |
| B6 | 2 |
| B7 | 0.8 |
| B8 | 2.5 |

— paper PMC10540216, “Activity Guided Azide-methyllysine Photo-trapping for Substrate Profiling of Lysine Demethylases” (Journal of the American Chemical Society, 2023)
